Test: yeast display, Sf9 membrane polyspecificity reagent, FACS + sequencing; frameworks hold sequencing errors
How it was run: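 A nanobody's polyreactivity label depends on the gate it was sorted from. Yeast display cells were stained with 10% biotinylated, detergent-solubilized Sf9 membrane reagent for 1 hour at 4 °C, enriched on streptavidin microbeads and sorted by FACS. The low and high (top ~1%) gates were set on anti-HA fluorescence for expression and streptavidin fluorescence for reagent binding.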

Sequence | polyreactivity (PSR sort gate)
QVQLVESGGGLVQAGGSLRLSCAASGSTFDGYAMGWYRQAPGKERELVAAITSSDGSTYYADSVKGRFTISRDNAKNTVYLQMNSLKPEDTAVSDCNAEGYDWEFGYWGQGTQVTVSS | low polyreactivity
QVQLVESGGGVVQARGSLRLSCAASGRIFDNAMGWYRQAPGKERELVAAISGGSTYYADSVKGRFTISRDNAKNTVYLQMHSLKPEDTAVYYCNTDPLGRTVVYGGDDYWGQGTQVTVSS | low polyreactivity
QVQLVESGGGLLQAGGSLLLSCAASGSIFDTNAMGWYRQAPGTERELVAAISWSDTSTYADSVKGRFTISRDNAKNTVYLQMNSLKPEDTAVYYCATDTRSQAYYYWGQGTQVNVSS | low polyreactivity
QVQLVESGGGLVQAGGSLRLSCAASGYTLDGYAMGWYRQAPGKEREFVAAIPFRGGGTYYADSVKGRFTISRDNAKNTDYLQMNSLKPEDTAVYYCNADTYDPFPWGSDYWGQGTQVTVSS | high polyreactivity
QVQHVESGGGLVQAGGSLRLSCAASGSIFLPYAMGWYRQAPGKQRELVAAISDRGSTYYADSVKGRFTISRDNAQNTVYLHMNSVKAEDTAVYYCAKVYLLFVGALQFDYWGQGTQVTVSS | low polyreactivity
QVQLVESGGGLVQAGGSLRLSCAASGYIFEYYAMGWYRQAPGKERELVAAISWSGGSTYYADSVKGRFTISRDNAKNTVYFQLNSLKPVDTAVYYCAAEYVTYQQGLWGYDYWGQGTQVTVSS | low polyreactivity
QVQLVESGGGLVQAGVSLRLSCAASGFTFDYYTMGWYRQAPGKEREFVAAITWNGGTTNYADSVKGRFTISRDNAKNTVYLQMNSLKPEDTAVYYCAATAYWYYSNDSGRSYDYWGQGTQVTVSS | low polyreactivity
QDQLVESGGGLVQAGGSLRLSCAASGLIFARYAMGWYIQAPGKERELVAVISGRGGGTYYADSVKGRFTISRDNAKNTVYLQMNSLKPEDTAVYYCNKYGYKGGVGYDYWGQGTQVTVSS | high polyreactivity
QVQLVESGGGLVQAGGSLRLSCAASGNTFPVYAMGWYRQAPGKERELVAAINTSGGSTYYADSVKGRFTISRDNAKYTVYLQMNSLKPEDTAVYYCAADWSYYGDELYYWGQGTQVTVSS | low polyreactivity
QVQLVESGGGLVQAGGSLRLSCAASGRTFTDNAMGWYRQAPGKERELVAAISRRGGSTYYADSVKGRFTISRDNAKNTVYLQMNSLKPEVTAVYYCNTDEIAGGFPYRYYLYYGYDYWGQGTQVTVSS | low polyreactivity
QVQLVESGGGLVQAGGSLRLTCAASGSTFTRYAMGWYRQAPGKERELVATIIFSGDRTYYADSVKGRFTISRDNAKNTVYLEMNSLKPEDTAVSYCNKYRYQWPYRRFDYWGQGTQVTVSS | high polyreactivity
QVQLVESGGGLVQAGGSLRLSCAASGSIFSYYAMGWYRQAPGKERELVATISSVGSTNYADSVKGRFTISRDNPKNTVYLQMNSLKPEDTAVYYCAATIGHNGFDYWGQGTQVTVSS | low polyreactivity
QVQLVESGGGLVQAGGILRLICAASGSTFPYNAMGWYRQAPGKERELVAAISSGGSTYYADSVNGRFTISRDNAKNTVYLELNSQKPEDTAVYYCAASLGKYIRSLGYGYWGQGTQVTVSS | high polyreactivity
QVQLVESGGGLVQAGGSLRLSCAASGRIFRYYAMGWYRQAPGKERELVAAISSGGSTYYADSVKGRFTISRDNAKNTVYLQMNSLKQEDTAVYYCAADRRYSYNWGHGTQVTVSS | high polyreactivity
QVQLVESGGCLVQAGGRLRLSCAASGSTFAYYSMGWDRQAPGKERELVAAITDSGGSTYYADSVKGRFTISRDNAKNTVYLQMNSLIPEDTAVYYCAVYGPWAYYPMGYWGQGSQVTVSS | low polyreactivity
QVQLVESGGGLVQAGGSLRLSCAASGIIFAGNAMGWYRQAPGKERELVAAITRSTGSTYYADSVKGRFTISRDNAKNTVYLLMNSLKPEDTEVYYCNAGHFAHHHGYYRSKYDYWGQGTQVTVSS | low polyreactivity
QVQLVESGGGLVQAGGSLRLSCAASGRIFSFYVMGWYRQAPGKERELVAAISLSGGSTYYADSVKGRFTISRDNAMNTVYLQMNSLKPEDTAVYYCNAVLYARQRDRWARYDYWGQGTQVTVSS | high polyreactivity
QVQLVESVGGLVQAGGSLRLSCAASGRTFRYYTMGWYRQAPGKERELVASISWSGGSTYYADSVKGRFTISRDNAKNTVYLQMNSLKPEDTAVYYCNAVYGYRGVTNMDYWGQGTQVTVSS | high polyreactivity
QVQLVESGGGLVQAGGSLRLSCAASGRTFSVYAMGWYRQAPGKERELVAAIRTSGGITYYADSVKGRFTISRDNAKNTVYLQMNSLKPEDTAVYYCAAETFRHYSYTRYYYWGQGTQVTVSS | high polyreactivity
QVQLVESGGRLVQAGGSLRLSSAASGRTFRTYALGWYRQAPGTEREFVAAISRRSGITYYADSVKGRFTISRDNAKNTVYLQMNSLKPEDTAVYYCAATGYTGYSRYYYWGQGTQVTVSS | high polyreactivity
QVQLVESGGGLVQAGGSLRLICAASGSISYINAMGWYRQATGKERELDARIRSGDPTNYADSVKGRFTISRDNAKNTVYLQMNSLKPEDTAVYYCARRVTGTLYYTGYDYWGQGTQVTVSS | high polyreactivity
